T1: Myo5 SH3 (MYO5_YEAST), Q04439
T1 chain: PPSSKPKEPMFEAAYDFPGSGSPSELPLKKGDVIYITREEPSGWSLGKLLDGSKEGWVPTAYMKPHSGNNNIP


Biological target: T1, Myo5 SH3 (MYO5_YEAST), Q04439
Experiment: SPOT array

Binder | normalised SPOT signal, Boehringer light units (BLU); mean over the file's lines of this peptide
DPNAYMQPQVPVQM [YIL109C 92-105] | 160
APPALSAPSVPPVP [YJL020C 718-731] | 6580
DARPFLKPVDPIAL [YDL070W 154-167] | 126
EPATLPLPGTPTLA [YKR041W 168-181] | 61.8
DFRLHYYPKDPSNV [YER172C 104-117] | 77.7
ALNNWILPSTPHIQ [YHR197W 533-546] | 169
DLSYYLRPIKPFNT [Q0115 378-391] | 161
EWPGLDPPYIPLDF [YLR308W 63-76] | 62.7
ELRKLVQPITPIIK [YGR062C 88-101] | 170
EARPYSEPSEPEDS [YER162C 705-718] | 208
APQPHLLPWLPPTD [YDL019C 1187-1200] | 117
APKYYVPPGIPTND [YJL020C 199-212] | 10400
DLLGLSTPQSPTNS [YHR108W 433-446] | 91.9
EFSPHSTPVTPRRL [YGL003C 167-180] | 114
ELEDFAFPDTPTIV [YBR221C 343-356] | 255
DELLLMSPELPADL [YHR186C 271-284] | 16
EADGLVQPVVPDKV [YER036C 364-377] | 75.1
ALKEMTHPIKPSAQ [YLR239C 27-40] | 261
ELRDLDIPLVPSPK [YLR131C 69-82] | 75.3
EAFKLPKPWSPNSH [YHR036W 272-285] | 141

Binder | normalised SPOT signal, Boehringer light units (BLU); mean over the file's lines of this peptide
ELYYLNDPKYPGTK [YGR154C 125-138] | 0
FASQLRKPRAPMRN [YER141W 445-458] | 460
EPPSWKPPDLPIRL [YIL156W 498-511] | 87000
APKKWKAPKGPKPT [YGL099W 6-19] | 1010
EAHQHHQPPEPQPY [YDR432W 85-98] | 0
APPALSAPSIPPVP [YJL020C 739-752] | 10800
EPIAHLFPPGPKNP [YEL031W 876-889] | 356
DPNQLSTPPTPKSA [YGR070W 171-184] | 166
DEFTLDLPRIPSLE [YBR123C 27-40] | 181
ALGIFFAPESPWWL [YDL247W 284-297] | 229
EFDMLLLPFIPSID [YHR109W 353-366] | 249
DFVTLHVPATPETE [YER081W 252-265] | 190
FARTLKIPNEPSPG [YKR038C 231-244] | 146
EAYRLNYPELPRLT [YLR073C 184-197] | 125
ELFTFDMPTDPSSF [YCR091W 173-186] | 44.9
DLSVHTSPHGPIGS [YGR068C 274-287] | 186
ALYHLSNPNVPKLW [YBR112C 140-153] | 196
EAIKLGVPKGPLFA [YKR079C 211-224] | 130
ALKSLSNPSSPWQQ [YDR283C 993-1006] | 30.3

Results, then the binder that gave them:

normalised SPOT signal, Boehringer light units (BLU); mean over the file's lines of this peptide | Binder
7750 | APAPPPPPQMPAT [YOR181W 519-531]
152 | DFIKLMNPTLPSLK [YNL118C 54-67]
81.6 | EETEMLAPKLPEEN [YNR028W 128-141]
212 | DFNKFERPNIPVEE [YPL242C 282-295]
49.8 | EAGDFEQPKGPAGA [YPL127C 99-112]
173 | DFPLYKSPAFPSSS [YPR039W 19-32]
294 | ELRTLFVPLIPSVT [YLR454W 1338-1351]
83.1 | APLLYSSPSEPMAY [YMR055C 139-152]
126 | DLKEFNGPEPPIKR [YNL286W 144-157]
220 | DLIHLDSPQQPNGY [YPL020C 565-578]
139 | DLMALKYPYFPTKM [YNL059C 225-238]
128 | EEMGMEEPQAPEAF [YPL176C 44-57]
108 | DFSSYGPPGTPGYD [YLR342W 92-105]
179 | DARPFLQPVDPVKL [YLR399C 169-182]
166 | ALRKFGYPFSPNDP [YPR097W 38-51]
215 | EPEPLMSPVPPSSA [YMR313C 491-504]
57.4 | ELLSFLSPGKPSKG [YML005W 159-172]
98.8 | DPSLYQIPEPPRGG [YOR307C 21-34]
189 | ELAEFTDPSSPVSE [YNL278W 118-131]
